In US20170101472A1 (Regeneron, published 2017):
One block for each binder: values may come before it.

Assays:
[1] = biological target: T1, human LAG3 chimera (extracellular domain of human LAG3 and trans-membrane/cytoplasmic domain of human CD300a) … (human, UniProt P18627 23-450; Q9UGN4 181-299, limits assumed); test: cell-based or functional assay
T1 sequence (looked up): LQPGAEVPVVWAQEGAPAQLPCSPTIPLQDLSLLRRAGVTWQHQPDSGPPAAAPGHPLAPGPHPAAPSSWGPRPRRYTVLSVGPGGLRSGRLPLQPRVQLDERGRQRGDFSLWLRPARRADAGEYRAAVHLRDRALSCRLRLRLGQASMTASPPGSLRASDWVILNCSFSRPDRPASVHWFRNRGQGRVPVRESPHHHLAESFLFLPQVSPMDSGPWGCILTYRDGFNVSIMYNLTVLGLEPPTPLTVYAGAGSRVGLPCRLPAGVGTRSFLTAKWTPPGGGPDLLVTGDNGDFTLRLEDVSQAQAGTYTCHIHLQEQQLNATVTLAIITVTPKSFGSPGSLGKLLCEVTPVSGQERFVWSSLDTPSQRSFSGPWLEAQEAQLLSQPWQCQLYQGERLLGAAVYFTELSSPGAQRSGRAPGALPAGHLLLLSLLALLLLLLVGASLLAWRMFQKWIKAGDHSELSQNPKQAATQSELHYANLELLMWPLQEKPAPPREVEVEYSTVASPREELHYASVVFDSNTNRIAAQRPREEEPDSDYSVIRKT

[2] = biological target: T2, human LAG3 expressed on HEK293 cells (human, UniProt P18627 23-525); test: cell adherence assay, blocks A20 (mouse MHCII) cells on HEK293-hLAG3
T2 construct: also called hLAG3; HEK293/hLAG3
T2 sequence: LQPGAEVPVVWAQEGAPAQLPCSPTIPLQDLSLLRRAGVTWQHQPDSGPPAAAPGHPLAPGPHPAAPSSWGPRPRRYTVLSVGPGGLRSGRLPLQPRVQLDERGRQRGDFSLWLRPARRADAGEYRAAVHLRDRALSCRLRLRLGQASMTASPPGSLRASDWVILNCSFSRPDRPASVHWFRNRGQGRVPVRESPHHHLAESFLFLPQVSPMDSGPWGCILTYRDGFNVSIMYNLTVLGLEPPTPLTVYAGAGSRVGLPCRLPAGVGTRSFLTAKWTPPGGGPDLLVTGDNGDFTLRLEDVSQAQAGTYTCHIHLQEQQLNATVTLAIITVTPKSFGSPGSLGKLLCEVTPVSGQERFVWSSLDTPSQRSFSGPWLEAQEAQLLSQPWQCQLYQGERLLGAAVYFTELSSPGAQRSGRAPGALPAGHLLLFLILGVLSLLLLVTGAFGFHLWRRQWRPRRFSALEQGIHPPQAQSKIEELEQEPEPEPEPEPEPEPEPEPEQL
Procedure: (§1) Cells were plated into sterile Nunclon™ Delta 96-Well MicroWell™ Black Optical Bottom Plates (Thermo Scientific). The wells from the perimeter of the plate were not included in the assay design to avoid edge effects.
(§2) On the day of treatment, all antibodies were serially (1:3) diluted in RPMI media (without FBS or supplements added). The 9-point dilution ranged between 45 pM to 300 nM, with the last dilution point containing no mAb. […] While the plated HEK293-LAG3 cells were incubating with the test or control antibodies, non-adherent B-cells (RAJI or A20) were labeled with Calcein AM using the following procedure. RAJI and A20 suspension cells were harvested and centrifuged at 1,200 rpm for 5 minutes. Cell pellets were resuspended in 1×PBS and counted. Cells were washed with RPMI, and resuspended in RPMI at a concentration of 10⁶ cells per 1 ml. Cells were labeled by adding 5 μL of Calcein AM per 1 ml of cell suspension and incubated for 30 min at 37° C., at 5% CO₂. […] Subsequently, 10 μL of BD Pharmingen Fc Block (0.5 mg/mL) was added per 1 ml of the Calcein AM labeled cells, which were incubated at RT for 10 minutes. The Calcein AM-stained, Fc-blocked RAJI or A20 cells were resuspended in RPMI to a final concentration of 3×10⁶ cells per 1 ml and subsequently used in the adherence assay.
(§3) The labeled suspension cells were incubated with the HEK293 monolayer for 1 hour at 37° C., at 5% CO₂.

[3] = biological target: T2, human LAG3 expressed on HEK293 cells; test: cell adherence assay, blocks RAJI (human MHCII) cells on HEK293-hLAG3
Procedure: as §1, §2, §3

[4] = biological target: T2, human LAG3 expressed on HEK293 cells; test: electrochemiluminescence cell binding, HEK293-hLAG3
Procedure: To investigate the ability of a panel of anti-LAG3 monoclonal antibodies to bind cell-surface expressed LAG3, an in vitro binding assay utilizing human and monkey LAG3 expressing cell lines in an electrochemiluminescence based detection platform [Meso Scale Diagnostics, Rockville, Md.—(MSD)] was developed.
Experiments were carried out according to following procedure. Cells from the three cell lines described above were rinsed once in 1×PBS buffer without Ca²⁺/Mg²⁺ followed by 10-minute incubation at 37° C. with Enzyme Free Cell Dissociation Solution. […] Approximately 10,000 cells per well in the cell-washing buffer were seeded into the 96-well carbon electrode plates (MULTI-ARRAY high bind plate, MSD) and incubated for 1 hour at 37° C. to allow the cells to adhere. Nonspecific binding sites were blocked by 2% BSA (w/v) in PBS for 1 hour at room temperature. […] The plates were then washed to remove the unbound antibodies using an AquaMax2000 plate washer (MDS Analytical Technologies). The plate-bound antibodies were detected with a SULFO-TAG™-conjugated anti-human IgG antibody (MSD) for 1 hour at room temperature. After washes, the plates were developed with the Read Buffer (MSD) according to manufacturer's recommended procedure and the luminescent signals were recorded with a SECTOR Imager 6000 (MSD) instrument. The direct binding signals (in relative light units—RLU) were analyzed as a function of the antibody concentration and the data were fitted with a sigmoidal (four-parameter logistic) dose-response model using Graph Pad Prism™ software. The potency of each antibody was determined by calculating EC₅₀.

B3: H4H15462P (antibody, human IgG4, V domains shown)
VH: QVQLVQSGAEVKKPGASVKVSCKASGYTFTNYYIHWVRQAPGQGLDWMGIINPGGGNTNYAQKFLGRVTMTRDTSTTTVYMELSSLRSEDTAIYYCARENWNSYFDNWGQGTLVTVSS
VL: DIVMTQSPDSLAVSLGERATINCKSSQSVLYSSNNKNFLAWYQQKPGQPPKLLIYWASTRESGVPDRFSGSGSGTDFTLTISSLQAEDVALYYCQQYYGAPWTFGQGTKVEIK
notes: H4H = human IgG4 Fc with S108P hinge mutation
EC50, AP1-Luc signaling, bispecific mode [1]: 224 pM
EC50, AP1-Luc signaling, peptide mode [1]: 344 pM
IC50 [2]: 7.1 nM
IC50 [3]: 3.2 nM
EC50 [4]: 6.85 nM

B4: H4H17826P2 (antibody, human IgG4, V domains shown)
VH: EVQLVESGGGLVQPGGSLRLSCAASGFTFSSYEMNWVRQAPGKGLEWVSYISSSGNTKDYAGSVKGRVTISRDNAKNLLYLQMNSLRAEDTAVYHCARDGGHYDILTGSMSYYYYALDVWGQGTTVTVSS
VL: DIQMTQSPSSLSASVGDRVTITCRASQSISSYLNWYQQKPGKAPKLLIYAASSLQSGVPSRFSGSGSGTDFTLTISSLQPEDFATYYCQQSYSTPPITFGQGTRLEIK
notes: as for B3
EC50, AP1-Luc signaling, bispecific mode [1]: 266000 pM
EC50, AP1-Luc signaling, peptide mode [1]: 8830 pM
IC50 [2]: 10 nM
IC50 [3]: 27 nM
EC50 [4]: 3.48 nM

The next lines start with the values.

EC50, AP1-Luc signaling, bispecific mode [1]: > 100000 pM
EC50, AP1-Luc signaling, peptide mode [1]: 4910 pM
IC50 [2]: 16 nM
IC50 [3]: 11 nM
EC50 [4]: 1.2 nM
B1: H4H17828P2 (antibody, human IgG4, V domains shown)
VH: EVQLVESGGGLVQPGGSLRLSCAASGFTFKTYAMSWVRQAPGRGLEWVSGISGSGSTSYYADSVKGRFTISRDNYKKTLSLQMNSLRAEDTAVYYCALDIMATVGGLFNNWGQGTLVTVSS
VL: not shown
notes: as for B3

EC50, AP1-Luc signaling, bispecific mode [1]: 148 pM
EC50, AP1-Luc signaling, peptide mode [1]: 486 pM
IC50 [2]: 3.6 nM
IC50 [3]: 2.5 nM
EC50 [4]: 0.853 nM
B2: H4sH15462P (antibody, V domains shown)
VH: B3 VH
VL: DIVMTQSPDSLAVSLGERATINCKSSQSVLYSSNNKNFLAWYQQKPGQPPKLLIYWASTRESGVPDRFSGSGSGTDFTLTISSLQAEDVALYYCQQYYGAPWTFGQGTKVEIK
notes: H4sH = human IgG4 Fc with 2 or more amino acid changes as disclosed in US20140243504

EC50, AP1-Luc signaling, bispecific mode [1]: 87.2 pM
EC50, AP1-Luc signaling, peptide mode [1]: 135 pM
IC50 [2]: 6.3 nM
IC50 [3]: 9.6 nM
EC50 [4]: 13.4 nM
B5: H4sH15479P (antibody, V domains shown)
VH: QVQLQQWGAGLLNPSETLSLTCAVYGGAFSDYYWNWIRQPPGKGLEWIGEINHRGSTNYNPSLKSRVTISVDTSKNQFSLRMSSVTAADAAVYYCARGEDYDIWNGYYQEKWGQGTLVTVSS
VL: EIVLTQSPATLSLSPGERATLSCRASQSISTYLAWYQQKPGQAPRLLIYDASKRATGIPARFSGSGSGTDFTLTISSLEPEDFVVYYCHQRSNWPLTFGGGTKVEIK
